Values of other authors, collected in publication PMC11339341.
Like-named read-outs stand apart in the source and are kept apart here. One block for each substance: values may come before it.

Experiments:
IFNAR2 (Homo sapiens) [1] = target: IFNAR2 (Homo sapiens) (UniProt P48551)
IFNAR2 (Homo sapiens) [2] = target: IFNAR2 (Homo sapiens) (UniProt P48551); remark: listed apart in the source
IFNAR1 (Homo sapiens) = IFNAR1 (Homo sapiens) (UniProt P17181)
IL-2Rβ:γc (Homo sapiens) = IL-2Rβ:γc (Homo sapiens) (UniProt P14784)
IL-2Rβ (Homo sapiens) [3] = target: IL-2Rβ (Homo sapiens) (UniProt P14784)
IL-2Rβ (Homo sapiens) [4] = target: IL-2Rβ (Homo sapiens) (UniProt P14784); remark: listed apart in the source
IL-4Rα (Homo sapiens) = IL-4Rα (Homo sapiens) (UniProt P24394)
IL-2Rβ (Homo sapiens) [5] = target: IL-2Rβ (Homo sapiens) (UniProt P14784); remark: listed apart in the source
IL-2Rβ (Homo sapiens) [6] = target: IL-2Rβ (Homo sapiens) (UniProt P14784); remark: listed apart in the source

UniProt P48551, sequence (P48551 27-243): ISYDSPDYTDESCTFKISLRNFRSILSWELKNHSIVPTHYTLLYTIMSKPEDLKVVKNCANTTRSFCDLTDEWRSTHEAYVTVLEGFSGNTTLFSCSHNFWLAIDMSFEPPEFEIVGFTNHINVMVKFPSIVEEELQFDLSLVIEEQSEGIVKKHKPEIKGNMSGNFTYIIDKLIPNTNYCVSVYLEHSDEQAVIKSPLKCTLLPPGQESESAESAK
UniProt P17181, sequence (P17181 28-436): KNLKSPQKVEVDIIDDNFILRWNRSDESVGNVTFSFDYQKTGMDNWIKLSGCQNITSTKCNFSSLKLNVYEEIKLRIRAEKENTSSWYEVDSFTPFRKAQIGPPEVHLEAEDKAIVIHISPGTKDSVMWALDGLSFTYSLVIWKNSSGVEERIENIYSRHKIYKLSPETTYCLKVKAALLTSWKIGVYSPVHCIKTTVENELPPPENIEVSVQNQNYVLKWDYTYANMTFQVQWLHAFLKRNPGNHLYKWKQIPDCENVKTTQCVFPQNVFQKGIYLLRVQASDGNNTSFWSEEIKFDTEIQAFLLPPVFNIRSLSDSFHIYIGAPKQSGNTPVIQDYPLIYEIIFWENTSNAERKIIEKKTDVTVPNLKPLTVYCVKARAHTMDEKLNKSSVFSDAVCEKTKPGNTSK

Substance: IFNα1 (from UniProt P0DY56)
Kd (IFNAR2 (Homo sapiens) [1]): 200 nM

Substance: IFNβ (from UniProt P01574)
Kd (IFNAR2 (Homo sapiens) [2]): 0.2 nM | Kd (IFNAR1 (Homo sapiens)): 50 nM

Substance: IL-4 (from UniProt P05112)
Kd (IL-4Rα (Homo sapiens)): < 1 nM

Continued, values first:

Kd (IL-2Rβ:γc (Homo sapiens)): 1 nM | Kd (IL-2Rβ (Homo sapiens) [3]): 100 nM
Substance: IL-2 (from UniProt P60568)

Kd (IL-2Rβ (Homo sapiens) [4]): 0.03 nM
Substance: IL-2:IL-2Rα complex (from UniProt P60568)

Kd (IL-2Rβ (Homo sapiens) [5]): 438 nM
Substance: IL-15 (from UniProt P40933)

Kd (IL-2Rβ (Homo sapiens) [6]): 3 nM
Substance: IL-15:IL-15Rα complex (from UniProt P40933)
